In PMC2695398:

Molecular target: Soluble HLA-DR15 (DRA, DRB1*1501) (human)
Assay: fluorescence polarisation

“Alexa488 labeled derivative of the human myelin basic protein (MBP) 85-99 peptide” was tested, and the fold acceleration of peptide binding by DM at pH 4.7 was 15 fold, the fold acceleration of peptide binding by DM at pH 5.6 was 8 fold and the fold acceleration of peptide binding by J10-1 at pH 4.7 was 15.6 fold. It also gave a fold acceleration of peptide binding by J10-1 at pH 5.6 of 28 fold, a fold acceleration of peptide binding by J10-1 at pH 7.1 of 12.6 fold and a fold acceleration of peptide exchange by 10 uM J10-1 of 15.9 fold. It also gave a fold acceleration of peptide exchange by 30 uM J10-1 of 66.4 fold, a fold faster rate of binding with DR15/CLIP than with DR15/pMBP as input complex greater than 10 fold and a half-life of the complex (t1/2) with 100 uM J10 of 4.48 h. For the same substance, the half-life of the complex (t1/2) with 100 uM J10-1 was 1.93 h and the half-life of the complex (t1/2), no small molecule was 35 h.
